The text below walks through data of paper PMC8187709, “Structural basis for SARS-CoV-2 envelope protein recognition of human cell junction protein PALS1” (Nature Communications, 2021).

B1: PALS1 PSG (PDZ, SH3 and GK domains; residues 236–675 with a deletion between 411–460) (domain or fragment, human, UniProt Q8N3R9 236-675, looked up)
chain: PITDERVYESIGQYGGETVKIVRIEKARDIPLGATVRNEMDSVIISRIVKGGAAEKSGLLHEGDEVLEINGIEIRGKDVNEVFDLLSDMHGTLTFVLIPSQQIKPPPAKETVIHVKAHFDYDPSDDPYVPCRELGLSFQKGDILHVISQEDPNWWQAYREGDEDNQPLAGLVPGKEEILTYEEMSLYHQPANRKRPIILIGPQNCGQNELRQRLMNKEKDRFASAVPHTTRSRRDQEVAGRDYHFVSRQAFEADIAAGKFIEHGEFEKNLYGTSIDSVRQVINSGKICLLSLRTQSLKTLRNSDLKPYIIFIAPPSQERLRALLAKEGKNPKPEELREIIEKTREMEQNNGHYFDTAIVNSDLDKAYQELLRLINKLDTEPQWVPSTWLR
modifications: covalently labeled with dye NT647 (in the MST measurement only)
notes: PALS1, human cell junction protein; PDZ, SH3 and GK domains (PSG), residues 236–675, without the loop between the SH3 and GK domains (deletion between 411–460); codon-optimised synthetic gene in pET16-b; also called PASL1–PSG domains; source: E. coli BL21 (DE3) pLysS, purified (Ni-NTA, TEV cleavage, second Ni-NTA, SEC); not shown: 10x His, N-terminal, cleaved

Data set [1] concerns the molecule itself. The experiment in a line: SEC; purified PSG on a TSKgel G3000SW column in 25 mM Tris pH 7.5, 100 mM NaCl, 1 mM TCEP.
Data set [2] has as its target B1. The data set is described as follows: MST; […]; 50 mM Tris pH 7.5, 100 mM NaCl, 1 mM DTT, 1 mM EDTA, 0.05% Tween 20; 10 min at room temperature; […]. The settings on record: both partners purified.

Take B1: the “stoichiometry N” value in data set [1] came to 2.

B2: SARS-CoV-2 envelope (E) protein C-terminal 18-amino acid peptide (Ec18) (peptide)
peptide: VYSRVKNLNSSRVPDLLV
notes: SARS-CoV-2 envelope (E) protein, 75 residues; also called E C-terminal peptide
With B2, binding in data set [2] was put at a Kd of 11.2 µM.
